Experimental findings from FireProtDB (doi:10.1021/bi000610b) are described below.

Several values for one entry are separate records, joined by “and”; a condition that tells them apart may be missing. Equal entries are not always repeated.

For this series the following is noted: Chlamydomonas reinhardtii, Thermal, glycine-HCl 10 mM, reversible: yes, whole UniProt chain shown.

B1: Thioredoxin H-type wild type, P80028 (protein)
chain: MGGSVIVIDSKAAWDAQLAKGKEEHKPIVVDFTATWCGPCKMIAPLFETLSNDYAGKVIFLKVDVDAVAAVAEAAGITAMPTFHVYKDGVKADDLVGASQDKLKALVAKHAAA
A word on the Tm: it is the temperature at which the thermal transition is half complete. In the case of B1, the Tm was 35.4 °C (pH 2.13, Fluorescence); 37.7 °C and 34.5 °C (pH 2.25, CD); 40 °C (pH 2.25, DSC); 42.7 °C (pH 2.25, Fluorescence); 47.3 °C and 46.6 °C (pH 2.5, CD); 51.1 °C (pH 2.5, DSC). Moreover, the midpoint of thermal melting (Tm) was 49.2 °C (pH 2.5, Fluorescence); 57.5 °C and 53.4 °C (pH 2.75, CD); 63 °C and 61.4 °C (pH 3, CD); 66.4 °C (pH 3, DSC); 65.3 °C (pH 3, Fluorescence); 73.6 °C (pH 3.25, DSC). Moreover, the “unfolding enthalpy (van 't Hoff)” value runs as follows: (pH 2.13, Fluorescence) 23.4 kcal/mol; (pH 2.25, CD) 21.5 kcal/mol and 17.9 kcal/mol; (pH 2.25, Fluorescence) 31.8 kcal/mol; (pH 2.5, CD) 42.5 kcal/mol and 38.5 kcal/mol; (pH 2.5, Fluorescence) 40.9 kcal/mol; (pH 2.75, CD) 59.5 kcal/mol and 54.2 kcal/mol. Further, the “unfolding enthalpy (van 't Hoff)” value reads like this: (pH 3, CD) 76.5 kcal/mol and 65.2 kcal/mol; (pH 3, Fluorescence) 66.9 kcal/mol. The “unfolding enthalpy (calorimetric)” value runs as follows: (pH 2.5, DSC) 52.6 kcal/mol; (pH 3, DSC) 77.4 kcal/mol; (pH 3.25, DSC) 80.8 kcal/mol.
